Test results: the supplement of paper PMC10126150
± gives the standard deviation of the averaged measurements.

System: ATP
Test: switch fluorescence ratio, 500 uM ATP over buffer (Cy3 cluster intensity, sum of 5 cycles each) (fold (ratio)); higher = stronger signal-on switching upon ATP binding; sequences stand for … in TCGTCGGCAGCGTCAGATGTGTATAAGAGACAGTTTTTTTTTTTTTTTTTTTTTTTTT…TC
Conditions: aptamer strand: ATP DNA aptamer (quencher-CACCTGGGGGAGTATTGCGGAGGAAGG + anchor), 100 nM annealed; ATP concentration: 500 uM
Summary of the method: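 Cy3-labelled switching-strand clusters on a modified Illumina MiSeq flow-cell were annealed to 100 nM quencher-labelled ATP aptamer and imaged first in selection buffer, then after 15 min with 500 uM ATP at 22 °C. NaOH stripping and re-annealing separated each of five buffer/ATP cycles, and clusters outside 100-1000 RFU were excluded. The fluorescence ratio sums target-cycle Cy3 intensity over buffer-cycle Cy3 intensity per cluster and averages it per switch-domain sequence.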
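Note: ATP exposure 15 min at 22 °C before imaging.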

| Sequence | switch fluorescence ratio |
| --- | --- |
| CGGGGTAGTT | 1.01 ± 0.004 |
| CGGGGTATCT | 0.979 ± 0.018 |
| CGGGGTCAAC | 1.24 ± 0.39 |
| CGGGGTCAGT | 1.02 ± 0.014 |
| CGGGGTCATG | 0.991 ± 0.024 |
| CGGGGTCCTA | 1.01 ± 0.014 |
| CGGGGTCCTG | 1.03 ± 0.054 |
| CGGGGTCTGT | 0.999 ± 0.022 |
| CGGGGTGGGA | 1.01 ± 0.029 |
| CGGGGTGTGC | 1.01 ± 0.031 |
| CGGGGTGTTC | 0.9849 ± 0.0049 |
| CGGGGTTGCA | 0.978 ± 0.022 |
| CGGGGTTGTG | 0.966 ± 0.014 |
| CGGGGTTTCG | 0.993 ± 0.028 |
| CGGGTAGGGC | 1.01 ± 0.032 |
| CGGGTAGGGG | 0.996 ± 0.069 |
| CGGGTAGTGG | 0.995 ± 0.032 |
| CGGGTATACT | 1.1 ± 0.092 |
| CGGGTATGGG | 0.984 ± 0.03 |
| CGGGTCAACT | 0.963 ± 0.014 |
| CGGGTCAGTG | 0.968 ± 0.04 |
| CGGGTCGCTT | 0.9738 ± 0.004 |
| CGGGTCGGGC | 0.991 ± 0.013 |

| Sequence | switch fluorescence ratio |
| --- | --- |
| CGGGTCTCGA | 1.03 ± 0.04 |
| CGGGTCTTGC | 0.981 ± 0.035 |
| CGGGTGACGG | 1.05 ± 0.057 |
| CGGGTGATTA | 1 ± 0.035 |
| CGGGTGCCAT | 0.994 ± 0.018 |
| CGGGTGCTTT | 1.05 ± 0.013 |
| CGGGTGGAGC | 0.952 ± 0.011 |
| CGGGTGGAGG | 1.02 ± 0.018 |
| CGGGTGGTTT | 0.988 ± 0.03 |
| CGGGTGTAGG | 1.02 ± 0.062 |
| CGGGTTAAAC | 1 ± 0.027 |
| CGGGTTAGCC | 0.998 ± 0.021 |
| CGGGTTAGTA | 1.02 ± 0.042 |
| CGGGTTCAGA | 1.051 ± 0.0054 |
| CGGGTTGTGG | 1.02 ± 0.062 |
| CGGGTTTAAT | 0.94 ± 0.029 |
| CGGGTTTGAA | 0.972 ± 0.024 |
| CGGTAAAGAT | 1 ± 0.058 |
| CGGTAACCGC | 0.994 ± 0.098 |
| CGGTAACGAA | 1.04 ± 0.014 |
| CGGTACAAGT | 1 ± 0.032 |
| CGGTACATTG | 1.004 ± 0.0053 |
| CGGTACCGGG | 1.022 ± 0.0061 |

| Sequence | switch fluorescence ratio |
| --- | --- |
| CGGTACTGAT | 1.0316 ± 0.00064 |
| CGGTAGCGGG | 1.008 ± 0.007 |
| CGGTAGGCGA | 0.985 ± 0.027 |
| CGGTAGGGGA | 1.023 ± 0.01 |
| CGGTAGGGGC | 0.968 ± 0.015 |
| CGGTAGGTGG | 1.01 ± 0.057 |
| CGGTAGGTTT | 0.9898 ± 0.0057 |
| CGGTAGTTAC | 1.25 ± 0.059 |
| CGGTATAGCA | 0.971 ± 0.027 |
| CGGTATAGTT | 0.988 ± 0.022 |
| CGGTATGGGA | 0.979 ± 0.044 |
| CGGTATGGTA | 0.972 ± 0.023 |
| CGGTCAAGGT | 1.003 ± 0.0076 |
| CGGTCACTG | 1.002 ± 0.0069 |
| CGGTCACTGT | 1.03 ± 0.038 |
| CGGTCAGGGC | 1.02 ± 0.014 |
| CGGTCAGGGG | 1.11 ± 0.023 |
| CGGTCATACT | 1.21 ± 0.029 |
| CGGTCGCCGG | 1.01 ± 0.02 |
| CGGTCGCGTG | 0.988 ± 0.02 |
| CGGTCGCTTG | 1.02 ± 0.032 |
| CGGTGAAGCC | 0.984 ± 0.019 |
| CGGTGACGCG | 0.982 ± 0.028 |

| Sequence | switch fluorescence ratio |
| --- | --- |
| CGGTGACTCG | 1.03 ± 0.029 |
| CGGTGAGCGA | 1.03 ± 0.044 |
| CGGTGAGGGG | 0.989 ± 0.011 |
| CGGTGAGTTG | 1.03 ± 0.04 |
| CGGTGATATT | 1.03 ± 0.052 |
| CGGTGCTTTT | 1 ± 0.011 |
| CGGTGGGCTA | 1.013 ± 0.0052 |
| CGGTGGGGGT | 0.988 ± 0.022 |
| CGGTGGGGTA | 1.01 ± 0.033 |
| CGGTGTAGCT | 1.03 ± 0.019 |
| CGGTGTGCGG | 0.995 ± 0.037 |
| CGGTGTTAGC | 0.976 ± 0.0015 |
| CGGTGTTGGC | 1.05 ± 0.081 |
| CGGTGTTTTC | 0.972 ± 0.046 |
| CGGTTAAAGG | 0.974 ± 0.03 |
| CGGTTAAGGG | 0.982 ± 0.038 |
| CGGTTAGAGG | 0.989 ± 0.0013 |
| CGGTTAGATA | 0.987 ± 0.019 |
| CGGTTATTGA | 1.02 ± 0.022 |
| CGGTTCGCCT | 0.998 ± 0.016 |
| CGGTTCGGCT | 1.04 ± 0.047 |
| CGGTTCTACG | 1.009 ± 0.0053 |
| CGGTTCTGTG | 1 ± 0.012 |

| Sequence | switch fluorescence ratio |
| --- | --- |
| CGGTTGACGG | 0.9494 ± 0.0017 |
| CGGTTGAGTT | 1.02 ± 0.04 |
| CGGTTGCTTG | 0.996 ± 0.034 |
| CGGTTGGGGA | 0.985 ± 0.036 |
| CGGTTGGTTT | 1.02 ± 0.017 |
| CGGTTGTTTT | 1.023 ± 0.0065 |
| CGGTTTAGCG | 0.98 ± 0.029 |
| CGGTTTAGGC | 0.93 ± 0.026 |
| CGGTTTATTG | 1 ± 0.036 |
| CGGTTTCTCG | 0.982 ± 0.02 |
| CGGTTTGGGA | 0.994 ± 0.035 |
| CGGTTTGTAT | 0.985 ± 0.023 |
| CGGTTTTAGC | 0.968 ± 0.042 |
| CGGTTTTATT | 0.982 ± 0.028 |
| CGGTTTTGAG | 1.01 ± 0.034 |
| CGGTTTTGTG | 0.962 ± 0.031 |
| CGTAAAACGC | 1.02 ± 0.03 |
| CGTAAAAGGC | 0.994 ± 0.027 |
| CGTAAAGCAG | 1.01 ± 0.061 |
| CGTAAAGGGG | 0.983 ± 0.026 |
| CGTAAATGTG | 0.9668 ± 0.0066 |
| CGTAACAATG | 1.1 ± 0.034 |
| CGTAACTGGT | 0.978 ± 0.018 |

| Sequence | switch fluorescence ratio |
| --- | --- |
| CGTAAGCGAG | 1.03 ± 0.062 |
| CGTAAGGGGA | 1.05 ± 0.064 |
| CGTAAGTGCA | 1 ± 0.024 |
| CGTAATAGTC | 1.81 ± 0.15 |
| CGTAATGGCA | 1.01 ± 0.017 |
| CGTAATGTCT | 1.06 ± 0.031 |
| CGTAATGTTA | 1.01 ± 0.019 |
| CGTACATGAG | 1.02 ± 0.037 |
| CGTACATGAT | 1.02 ± 0.022 |
| CGTACGAAGG | 0.971 ± 0.028 |
| CGTACGAATG | 0.9769 ± 0.007 |
| CGTACGGTCT | 1.05 ± 0.059 |
| CGTACGTGGC | 1.125 ± 0.0035 |
| CGTACGTTG | 1 ± 0.022 |
| CGTACTGAAA | 1.04 ± 0.0087 |
| CGTACTGTGG | 0.9977 ± 0.0099 |
| CGTAGATACA | 1.03 ± 0.036 |
| CGTAGCGGGG | 1.11 ± 0.022 |
| CGTAGGATGT | 1.02 ± 0.044 |
| CGTAGGGGTA | 1.11 ± 0.32 |
| CGTAGGTGTG | 1.02 ± 0.021 |
| CGTAGTAACT | 1.11 ± 0.022 |
| CGTAGTATAG | 1.24 ± 0.017 |

| Sequence | switch fluorescence ratio |
| --- | --- |
| CGTAGTCTGG | 1.05 ± 0.038 |
| CGTAGTGGCT | 1.04 ± 0.04 |
| CGTATAAGAG | 0.991 ± 0.027 |
| CGTATAATAG | 1.02 ± 0.04 |
| CGTATATTGT | 0.983 ± 0.061 |
| CGTATCATTG | 0.997 ± 0.042 |
| CGTATCCGGT | 1.03 ± 0.0019 |
| CGTATCCGTA | 0.987 ± 0.042 |
| CGTATGATAG | 1.015 ± 0.0047 |
| CGTATGCAAA | 1.06 ± 0.058 |
| CGTATGCGCA | 0.97 ± 0.028 |
| CGTATGGGAG | 0.9452 ± 0.0036 |
| CGTATGGGTG | 1.02 ± 0.04 |
| CGTATGGTTA | 1.02 ± 0.038 |
| CGTATTAAGC | 0.955 ± 0.015 |
| CGTATTAGTA | 0.9926 ± 0.0054 |
| CGTATTATTG | 1.01 ± 0.02 |
| CGTATTCGTA | 0.978 ± 0.019 |
| CGTATTTAAA | 1.01 ± 0.013 |
